# Test results as given in patent US20230265151A1, “GIP/GLP1 CO-AGONIST COMPOUNDS” (priority 2020, published 2023).
# Substitutions are numbered along the chain they refer to. *1 amine or outer side, *2 acyl side, *3 side chain or, on linkers, in order; H or OH if unused. Where no end group is shown, it is not given here. Side-chain parts run from the residue outwards. [ ]: non-standard residue; d: D form. The star is where a group is joined. Decanoyl(10-(4-HOOC-PhO)) = O=C(O)c1ccc(OCCCCCCCCCC(=O)*)cc1; αMePhe(2-F) = C[C@](N)(Cc1ccccc1F)C(=O)O; γGlu = O=C(O)[C@H](CCC(=O)[*:2])N[*:1]; C14 diacid = O=C(O)CCCCCCCCCCCCC(=O)*; αMeY = C[C@](N)(Cc1ccc(O)cc1)C(=O)O; αMeL = CC(C)C[C@](C)(N)C(=O)O; Nle = CCCC[C@H](N)C(=O)O; Orn = NCCC[C@H](N)C(=O)O; AEEA = NCCOCCOCC(=O)O; Aib = CC(C)(N)C(=O)O
# T1: human GIP receptor (human, UniProt P48546 22-466)
# T1 sequence (looked up): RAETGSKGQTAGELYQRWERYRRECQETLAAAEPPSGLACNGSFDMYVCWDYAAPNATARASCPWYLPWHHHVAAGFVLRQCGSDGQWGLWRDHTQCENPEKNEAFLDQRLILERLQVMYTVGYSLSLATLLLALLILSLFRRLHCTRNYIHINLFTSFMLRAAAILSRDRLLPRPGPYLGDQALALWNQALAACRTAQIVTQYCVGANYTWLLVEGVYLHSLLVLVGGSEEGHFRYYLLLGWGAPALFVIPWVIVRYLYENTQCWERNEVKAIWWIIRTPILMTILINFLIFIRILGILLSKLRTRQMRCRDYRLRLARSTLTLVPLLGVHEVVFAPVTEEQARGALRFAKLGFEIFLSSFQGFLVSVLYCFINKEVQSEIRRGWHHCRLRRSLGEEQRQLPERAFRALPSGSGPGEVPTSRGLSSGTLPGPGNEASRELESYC
# B1: Example 310 (peptide)
# peptide: YXEGTXTSDXSIXLDXIAQXEFIKXLIKGGPSSGAPPPS
# modifications: Y-Aib-EGT-αMeF(2F)-TSD-hTyr-SI-αMeL-LD-Orn-IAQ-Aib-EFIK((2-[2-(2-Amino-ethoxy)-ethoxy]-acetyl)2-(γ-Glu)-(10-(4-carboxyphenoxy)decanoyl))-αMeY-LIK((2-[2-(2-Amino-ethoxy)-ethoxy]-acetyl)2-(γ-Glu)-(10-(4-carboxyphenoxy)decanoyl))GGPSSGAPPPS-NH2
# B2: Example 281 (peptide)
# peptide: B1 peptide with I17K, E21K, K24X, K28E
# modifications: Y-Aib-EGT-αMeF(2F)-TSD-2Nal-SI-αMeL-LD-Orn-K((2-[2-(2-Amino-ethoxy)-ethoxy]-acetyl)2-(γ-Glu)-(10-(4-carboxyphenoxy)decanoyl))AQ-Aib-K((2-[2-(2-Amino-ethoxy)-ethoxy]-acetyl)2-(γ-Glu)-(10-(4-carboxyphenoxy)decanoyl))FI-(D-Glu)-αMeY-LIEGGPSSGAPPPS-NH2
# B3: Example 311 (peptide)
# peptide: B1 peptide with S11X
# modifications: Y-Aib-EGT-αMeF(2F)-TSD-4Pal-Aib-I-αMeL-LD-Orn-IAQ-Aib-EFIK(2-[2-(2-Amino-ethoxy)-ethoxy]-acetyl)2-(γ-Glu)-(11-(4-carboxyphenoxy)undecanoyl)-αMeY-LIK((2-[2-(2-Amino-ethoxy)-ethoxy]-acetyl)2-(γ-Glu)-(11-(4-carboxyphenoxy)undecanoyl)GGPSSGAPPPS-NH2)
# B4: Example 282 (peptide)
# peptide: B1 peptide with I17K, K24X
# modifications: Y-Aib-EGT-αMeF(2F)-TSD-2Nal-SI-αMeL-LD-Orn-K((2-[2-(2-Amino-ethoxy)-ethoxy]-acetyl)2-(γ-Glu)-(10-(4-carboxyphenoxy)decanoyl))AQ-Aib-EFI-(D-Glu)-αMeY-LIK((2-[2-(2-Amino-ethoxy)-ethoxy]-acetyl)2-(γ-Glu)-(10-(4-carboxyphenoxy)decanoyl))GGPSSGAPPPS-NH2
# B5: Example 321 (peptide)
# peptide: B1 peptide with I17K, E21K, K24X, K28E
# modifications: Y-Aib-EGT-αMeF(2F)-TSD-Nle-SI-αMeL-LD-Orn-K((2-[2-(2-Amino-ethoxy)-ethoxy]-acetyl)2-(γ-Glu)-(10-(4-carboxyphenoxy)decanoyl))AQ-Aib-K((2-[2-(2-Amino-ethoxy)-ethoxy]-acetyl)2-(γ-Glu)-(10-(4-carboxyphenoxy)decanoyl))FI-(D-Glu)-αMeY-LIEGGPSSGAPPPS-NH2
# B6: Example 283 (peptide)
# peptide: B1 peptide
# modifications: Y-Aib-EGT-αMeF(2F)-TSD-2Nal-SI-αMeL-LD-Orn-IAQ-Aib-EFIK((2-[2-(2-Amino-ethoxy)-ethoxy]-acetyl)2-(γ-Glu)-(10-(4-carboxyphenoxy)decanoyl))-αMeY-LIK((2-[2-(2-Amino-ethoxy)-ethoxy]-acetyl)2-(γ-Glu)-(10-(4-carboxyphenoxy)decanoyl))GGPSSGAPPPS-NH2
# B7: Example 315 (peptide)
# peptide: B1 peptide with S11X, E21X
# modifications: Y-Aib-EGT-αMeF(2F)-TSD-4Pal-Aib-I-αMeL-LD-Orn-IAQ-Aib-Orn-FIK((2-[2-(2-Amino-ethoxy)-ethoxy]-acetyl)2-(γ-Glu)-CO-(CH2)12-CO2H)-αMeY-LIK((2-[2-(2-Amino-ethoxy)-ethoxy]-acetyl)2-(γ-Glu)-CO-(CH2)12-CO2H)GGPSSGAPPPS-NH2
# B8: Example 320 (peptide)
# peptide: B1 peptide with I17K, E21K, K24X, K28E
# modifications: Y-Aib-EGT-αMeF(2F)-TSD-hTyr-SI-αMeL-LD-Orn-K((2-[2-(2-Amino-ethoxy)-ethoxy]-acetyl)2-(y-Glu)-(10-(4-carboxyphenoxy)decanoyl))AQ-Aib-K((2-[2-(2-Amino-ethoxy)-ethoxy]-acetyl)2-(γ-Glu)-(10-(4-carboxyphenoxy)decanoyl))FI-(D-Glu)-αMeY-LIEGGPSSGAPPPS-NH2
# B9: Example 279 (peptide)
# peptide: B1 peptide
# modifications: Y-Aib-EGT-αMeF(2F)-TSD-OMeY-SI-αMeL-LD-Orn-IAQ-Aib-EFIK((2-[2-(2-Amino-ethoxy)-ethoxy]-acetyl)2-(γ-Glu)-(10-(4-carboxyphenoxy)decanoyl))-αMeY-LIK((2-[2-(2-Amino-ethoxy)-ethoxy]-acetyl)2-(γ-Glu)-(10-(4-carboxyphenoxy)decanoyl))GGPSSGAPPPS-NH2
# B10: Example 285 (peptide)
# peptide: YXEGTXTSDXSIXLDXKAQXEFIXXLIEGGPSSGAPPPSK
# modifications: Y-Aib-EGT-αMeF(2F)-TSD-4Pal-SI-αMeL-LD-Orn-K((2-[2-(2-Amino-ethoxy)-ethoxy]-acetyl)2-(γ-Glu)-(11-(4-carboxyphenoxy)undecanoyl))AQ-Aib-EFI-(D-Glu)-αMeY-LIEGGPSSGAPPPSK((2-[2-(2-Amino-ethoxy)-ethoxy]-acetyl)2-(γ-Glu)-(11-(4-carboxyphenoxy)undecanoyl))-NH2
# B11: Example 288 (peptide)
# peptide: B10 peptide with K17I, E21K
# modifications: Y-Aib-EGT-αMeF(2F)-TSD-4Pal-SI-αMeL-LD-Orn-IAQ-Aib-K(2-[2-(2-Amino-ethoxy)-ethoxy]-acetyl)2-(γ-Glu)-(11-(4-carboxyphenoxy)undecanoyl)FI-(D-Glu)-αMeY-LIEGGPSSGAPPPSK((2-[2-(2-Amino-ethoxy)-ethoxy]-acetyl)2-(γ-Glu)-(11-(4-carboxyphenoxy)undecanoyl)-NH2)
# B12: Example 291 (peptide)
# peptide: B10 peptide
# modifications: Y-Aib-EGT-αMeF(2F)-TSD-OMeY-SI-αMeL-LD-Orn-K((2-[2-(2-Amino-ethoxy)-ethoxy]-acetyl)2-(γ-Glu)-CO-(CH2)10-CH3)AQ-Aib-EFI-(D-Glu)-αMeY-LIEGGPSSGAPPPSK((2-[2-(2-Amino-ethoxy)-ethoxy]-acetyl)2-(γ-Glu)-CO-(CH2)10-CH3)-NH2
# B13: Example 316 (peptide)
# peptide: B1 peptide with X10Y, S11X, E21X
# modifications: Y-Aib-EGT-αMeF(2F)-TSDY-Aib-I-αMeL-LD-Orn-IAQ-Aib-Orn-FIK((2-[2-(2-Amino-ethoxy)-ethoxy]-acetyl)2-(γ-Glu)-CO-(CH2)12-CO2H)-αMeY-LIK((2-[2-(2-Amino-ethoxy)-ethoxy]-acetyl)2-(γ-Glu)-CO-(CH2)12-CO2H)GGPSSGAPPPS-NH2
# Assays:
# Experiment in all cases: cell-based or functional assay
# human GIP receptor = target: T1, human GIP receptor
# human GLP-1 receptor = human GLP-1 receptor (human, UniProt P43220 24-463)
# human glucagon receptor = human glucagon receptor (human, UniProt P47871 26-477)
Binder,cAMP EC50 (1.0% HSA) (human GIP receptor) [nM],cAMP Emax (1.0% HSA) (human GIP receptor) [%],cAMP EC50 (1.0% HSA) (human GLP-1 receptor) [nM],cAMP EC50 (1.0% HSA) (human glucagon receptor) [µM],cAMP Emax (1.0% HSA) (human GLP-1 receptor) [%]
B1,2.4,83.9,22,> 9.95,–
B2,1.87,–,22.4,> 9.95,–
B3,2.16,98.3,33.8,> 9.95,–
B4,1.44,–,31.8,> 9.95,–
B5,0.631,–,13.9,> 9.95,–
B6,4.88,–,49.5,> 9.95,–
B7,0.393,89.2,5.38,> 9.95,93.5
B8,0.338,84.1,6.22,> 9.95,–
B9,3.21,–,36.6,> 9.95,–
Y[Aib]EGT[αMePhe(2-F)]TSDV[Aib]I[αMeL]LD[Orn]IAQ[Aib][Orn]FIK([AEEA-AEEA-γGlu-C14 diacid])[αMeY]LIK([AEEA-AEEA-γGlu-C14 diacid])GGPSSGAPPPS-NH2 [Example 317],2.03,84.4,29.5,> 9.95,–
B10,1.28,–,136,> 9.95,–
B11,0.48,85.2,17.1,> 9.95,123
B12,0.833,–,7.43,> 9.95,–
Y[Aib]EGT[αMePhe(2-F)]TSD[Nle]SI[αMeL]LD[Orn]IAQ[Aib]EFIK([AEEA-AEEA-γGlu-Decanoyl(10-(4-HOOC-PhO))])[αMeY]LIK([AEEA-AEEA-γGlu-Decanoyl(10-(4-HOOC-PhO))])GGPSSGAPPPS-NH2 [Example 314],3.51,–,38.6,> 9.95,–
B13,1.11,–,19.2,> 9.95,113
